Sequences and labels used below:
B1: CARD8-CT (N-terminally degraded CARD8, UPA-CARD) in the purified CARD8-DPP9 complex (domain or fragment, human, UniProt Q9Y2G2-5 297-537, looked up)
chain: SLMGILLRIASGTRLSIPITSNTLIYYHPHPEDIKFHLYLVPSDALLTKAIDDEEDRFHGVRLQTSPPMEPLNFGSSYIVSNSANLKVMPKELKLSYRSPGEIQHFSKFYAGQMKEPIQLEITEKRHGTLVWDTEVKPVDLQLVAASAPPPFSGAAFVKENHRQLQARMGDLKGVLDDLQDNEVLTENEKELVEQEKTRQSKNEALLSMVEKKGDLALDVLFRSISERDPYLVSYLRQQNL
B2: DPP9, short isoform (DPP9S), co-expressed with CARD8 for cryo-EM (enzyme, human)
chain: MATTGTPTADRGDAAATDDPAARFQVQKHSWDGLRSIIHGSRKYSGLIVNKAPHDFQFVQKTDESGPHSHRLYYLGMPYGSRENSLLYSEIPKKVRKEALLLLSWKQMLDHFQATPHHGVYSREEELLRERKRLGVFGITSYDFHSESGLFLFQASNSLFHCRDGGKNGFMVSPMKPLEIKTQCSGPRMDPKICPADPAFFSFINNSDLWVANIETGEERRLTFCHQGLSNVLDDPKSAGVATFVIQEEFDRFTGYWWCPTASWEGSEGLKTLRILYEEVDESEVEVIHVPSPALEERKTDSYRYPRTGSKNPKIALKLAEFQTDSQGKIVSTQEKELVQPFSSLFPKVEYIARAGWTRDGKYAWAMFLDRPQQWLQLVLLPPALFIPSTENEEQRLASARAVPRNVQPYVVYEEVTNVWINVHDIFYPFPQSEGEDELCFLRANECKTGFCHLYKVTAVLKSQGYDWSEPFSPGEDEFKCPIKEEIALTSGEWEVLARHGSKIWVNEETKLVYFQGTKDTPLEHHLYVVSYEAAGEIVRLTTPGFSHSCSMSQNFDMFVSHYSSVSTPPCVHVYKLSGPDDDPLHKQPRFWASMMEAASCPPDYVPPEIFHFHTRSDVRLYGMIYKPHALQPGKKHPTVLFVYGGPQVQLVNNSFKGIKYLRLNTLASLGYAVVVIDGRGSCQRGLRFEGALKNQMGQVEIEDQVEGLQFVAEKYGFIDLSRVAIHGWSYGGFLSLMGLIHKPQVFKVAIAGAPVTVWMAYDTGYTERYMDVPENNQHGYEAGSVALHVEKLPNEPNRLLILHGFLDENVHFFHTNFLVSQLIRAGKPYQLQIYPNERHSIRCPESGEHYEVTLLHFLQEYL
B3: Full-length CARD8 (T60 isoform), wild type, co-expressed with DPP9S for cryo-EM (natural protein, human, UniProt Q9Y2G2-5 1-537, looked up)
chain: MEKKECPEKSSSSEEELPRRDSGSSRNIDASKLIRLQGSRKLLVDNSIRELQYTKTGIFFQAEACVTNDTVYRELPCVSETLCDISHFFQEDDETEAEPLLFRAVPECQLSGGDIPSVSEEQESSEGQDSGDICSEENQIVSSYASKVCFEIEEDYKNRQFLGPEGNVDVELIDKSTNRYSVWFPTAGWYLWSATGLGFLVRDEVTVTIAFGSWSQHLALDLQHHEQWLVGGPLFDVTAEPEEAVAEIHLPHFISLQAGEVDVSWFLVAHFKNEGMVLEHPARVEPFYAVLESPSFSLMGILLRIASGTRLSIPITSNTLIYYHPHPEDIKFHLYLVPSDALLTKAIDDEEDRFHGVRLQTSPPMEPLNFGSSYIVSNSANLKVMPKELKLSYRSPGEIQHFSKFYAGQMKEPIQLEITEKRHGTLVWDTEVKPVDLQLVAASAPPPFSGAAFVKENHRQLQARMGDLKGVLDDLQDNEVLTENEKELVEQEKTRQSKNEALLSMVEKKGDLALDVLFRSISERDPYLVSYLRQQNL
B4: Full-length CARD8 S297A (autoproteolysis-deficient), co-expressed with DPP9S for cryo-EM (natural protein, human, UniProt Q9Y2G2-5 1-537, looked up)
chain: B3 chain with S297A

Substitutions are numbered along the chain they refer to. In names and notes the source's numbering stands. Read-outs that look alike come from different tables or passages of the source.

Common to all, as to assay: cryo-EM structure
Experiment [1] addresses B3.
Experiment [2] has as its target B2.
The target of experiment [3] is B2. This is another data set of the same source.

By stoichiometry N is commonly meant a count of units in the complex or per binding partner.

Consider B1, for which the binding result in experiment [1] is given as “binds”.
Regarding B2, the “stoichiometry N” value in experiment [1] was 1.
As for B3, in experiment [2], the binding result is reported as “binds”.
For B4, the binding result in experiment [3] is on record as “binds”.

Values taken from article doi:10.1101/2021.01.13.426575 (bioRxiv, 2021).
